The text below walks through data of patent US11951128B2, “Compositions and methods for the isolation and/or generation of specific CD4+ and CD8+ T-cell subsets” (LA JOLLA INSTITUTE FOR ALLERGY AND IMMUNOLOGY, priority 2017, dated 2024).

The subject of one test is B16 tumor cells. Kind of test: MHC class II expression on B16 tumor cells. The format is cell-based, mouse. The text has this:
As a result, most transferred CD4 CTL died in vivo. In addition, activated anti-tumor specific CD8 CTL kill the tumor cells in response to detecting their Ag on the tumor cells presented by MHC class I (OVA Ag on the B16-OVA). In addition they also secrete IFNg which in turn upregulate MHC class II expression on the tumor cells (right panel). Anti-tumor reactive CD8 T-cells become restrained (induction of PD-1) or undergo TL- or activation-induced cell death. Therefore, a combination of anti-tumor CD8 T-cells (or NK T-cells or DN T-cells) and anti-tumor CD4 CTL which can kill tumor cells once MHC class II is induced, can be a powerful anti-tumor immunotherapy.

In another test the test system is CD8ab T-cells. Kind of test: induction of CD8αα on in vitro activated CD8ab T-cells, measured with TL tetramer. The format is cell-based, mice. To be noted: for generation of CD8αα effector memory precursor cells: WT, IL10−/− or IL21−/− CD8ab T-cells, anti-CD3/CD28, with or without IL12. The protocol:
CD8ab T-cells isolated from wild type mice (WT) or IL10 deficient mice (IL10−/−), or IL21 deficient mice (IL21−/−) were activated in vitro with anti-CD3/CD28 and with or without IL12. Induction of CD8αα was measured using TL tetramer.

For the molecule “IFNg: soluble cytokine, the only member of the type II class of interferons”, the “MHC class II (I-A^b) expression on tumor cells” value in the test on B16 tumor cells is recorded as “induce MHC class II (I-A^b)”.
Consider IL-21: anti-inflammatory cytokine, for which, in the test on CD8ab T-cells, the “generation of CD8αβ TEM/RM” value was “counteract” and the “generation of CD8αα effector memory precursor cells” value was “inhibit”.

B1: IL-12: pro-inflammatory cytokine (protein, UniProt P29459 23-219; P29460 23-328, looked up)
Interleukin-12 subunit alpha: RNLPVATPDPGMFPCLHHSQNLLRAVSNMLQKARQTLEFYPCTSEEIDHEDITKDKTSTVEACLPLELTKNESCLNSRETSFITNGSCLASRKTSFMMALCLSSIYEDLKMYQVEFKTMNAKLLMDPKRQIFLDQNMLAVIDELMQALNFNSETVPQKSSLEEPDFYKTKIKLCILLHAFRIRAVTIDRVMSYLNAS
Interleukin-12 subunit beta: IWELKKDVYVVELDWYPDAPGEMVVLTCDTPEEDGITWTLDQSSEVLGSGKTLTIQVKEFGDAGQYTCHKGGEVLSHSLLLLHKKEDGIWSTDILKDQKEPKNKTFLRCEAKNYSGRFTCWWLTTISTDLTFSVKSSRGSSDPQGVTCGAATLSAERVRGDNKEYEYSVECQEDSACPAAEESLPIEVMVDAVHKLKYENYTSSFFIRDIIKPDPPKNLQLKPLKNSRQVEVSWEYPDTWSTPHSYFSLTFCVQVQGKSKREKKDRVFTDKTSATVICRKNASISVRAQDRYYSSSWSEWASVPCS
On to B1, for which, in the test on CD8ab T-cells, the “generation of CD8αβ TEM/RM” value was “promotes” and the “generation of CD8αα effector memory precursor cells” value was “promotes”.

B2: IL-10: anti-inflammatory cytokine (protein, UniProt P22301 19-178, looked up)
Interleukin-10: SPGQGTQSENSCTHFPGNLPNMLRDLRDAFSRVKTFFQMKDQLDNLLLKESLLEDFKGYLGCQALSEMIQFYLEEVMPQAENQDPDIKAHVNSLGENLKTLRLRLRRCHRFLPCENKSKAVEQVKNAFNKLQEKGIYKAMSEFDIFINYIEAYMTMKIRN
Regarding B2, in the test on CD8ab T-cells, the “generation of CD8αβ TEM/RM” value was “counteract” and the “generation of CD8αα effector memory precursor cells” value is listed as “inhibit”.
